# Results as given in US8147817B2, “IL-33 in the treatment and diagnosis of diseases and disorders” (The Brigham and Women's Hospital, Inc., priority 2006, dated 2012).
# “Also recorded” adds a separate entry of the source.
# B1: IL-33: recombinant mature rat IL-33, starting with amino acid 109 of the full-length protein, N-terminal His tag (GenBank BC081993) (protein)
# chain: SIQGTSLLTESCALSTYNDQSVSFVLENGCYVINVEDCGKNQEKDKVLLRYYESSFPAQSGDGVDGKKLMVNMSPIKDTDIWLNANDKDYSVELQKGDVSPPDQAFFVLHKKSSDFVSFECKNLPGTYIGVKDNQLALVEENDESCNNIMFKLSKM
# modifications: left off: small tags and cut ends
# Assays:
# [1] = tested on: rat neonatal cardiomyocytes; experiment: Cardiomyocyte apoptosis assays (H2O2 stimulus); type: cell-based
# Procedure: For cardiomyocyte apoptosis assays, cardiomyocytes were plated overnight, cultured serum-free for 24 hours, and then subjected to 0.1 mM H2O2 for another 24 hours with or without treatment with purified rat mature IL-33 protein. TUNEL staining (FIG. 19) was performed using a TUNEL staining kit (Roche Diagnostics Corp., Indianapolis, Ind.). For DNA fragmentation experiments (FIGS. 19 and 20), cells were trypsinized, fixed with ethanol, incubated in RNase, stained with propidium iodide, and then subjected to flow cytometry (Cytomics FC 500; Beckman Coulter).
# Membranes (PVDF, PerkinElmer) were incubated with primary antibodies overnight (anti-cleaved caspase-3, 1:1000; from Cell Signaling Technology) at 4° C., detected with horseradish peroxidase-conjugated antibodies (Bio-Rad) and enhanced chemiluminescence (FIG. 20).
# [2] = tested on: rat neonatal cardiomyocytes; experiment: [3H]-leucine incorporation assay (hypertrophy); type: cell-based
# Procedure: Leucine incorporation in rat neonatal cardiomyocytes was detected as previously described (7). Cells were pre-incubated with 1.0 μCi/mL [^3H]leucine for 24 hours. The medium was aspirated, and the cells were washed twice with ice-cold PBS and once with 10% trichloroacetic acid (TCA; Sigma) and fixed for 45 minutes at 4° C. with 10% TCA. After washing twice with cold 95% ethanol, radioactivity incorporated into the TCA-precipitable material was determined by liquid scintillation counting after solubilization in 0.15N NaOH.
# Leucine incorporation in rat neonatal cardiomyocytes was detected as previously described (46). Cells were treated with 1.0 μCi/ml [^3H]-leucine for 24 hours, washed, fixed with 10% trichloroacetate (Sigma) for 45 minutes at 4° C., and then radioactivity was determined by liquid scintillation counting. An anti-mouse ST2 antibody (R&D) was used as a functional neutralizing antibody (12). A normal rat IgG2a (Sigma) and mouse IL-1Rrp2 (R&D) were used as controls for anti-mouse ST2 antibody (R&D) and mouse soluble ST2 (R&D), respectively.
# [3] = tested on: lungs of Sham-operated mice; experiment: Lung histology of Sham-operated mice after IL-33 treatment; type: in vivo, mouse; details: 2 μg/day rat IL-33 for 7 days
# Procedure: Targeted ST2−/− mice and their WT littermates were employed for the experiments. […] All operative procedures were performed by a single operator with over 20 years rodent cardiac surgery experience who was blinded to genotype and the randomized treatment assignment. Following the procedure, each mouse received daily i.p. injection of recombinant rat IL-33 (2 μg) or vehicle from the day after TAC operation until the day of harvest.
# IκBα = IκBα phosphorylation by Western analysis in cardiac fibroblasts; type: cell-based, rat
# Procedure: Western analyses were performed as described previously (45). Membranes were incubated with primary antibodies overnight (anti-p44/42MAPK diluted 1:500; phospho-p44/42MAPK (Thr202/Tyr204) 1:1000; phospho-JNK (Thr183/Tyr185) 1:500; p38MAPK 1:500; phospho-p38MAPK (Thr180/Tyr182) 1:500; phospho-Akt (Ser473) 1:1000 and phospho-IκBα 1:1000, all from Cell Signaling, anti-mouse ST2L, from R&D 1:1000 and anti-IL-33 as described above, 1:500) at 4° C., detected with horseradish peroxidase-conjugated antibodies and enhanced chemiluminescence.
# cardiomyocytes = experiment: Oxidative stress assay (DCFDA, ROS generation); type: cell-based, rat; details: co-treatment with IL-33
# Procedure: An assay to detect oxidative stress was performed as reported previously (48). Cardiomyocytes were incubated with 2,7-dichlorodihydrofluorecein diacetate (DCFDA) for 45 min, washed in phosphate-buffered saline, and fluorescence intensity was measured using a fluorometer (PerkinElmer Life Science) at 595 nm.
# NF-κB = NF-κB luciferase reporter assay in neonatal rat cardiomyocytes; type: cell-based; details: angiotensin-II with IL-33 co-treatment, n=3
# Procedure: Neonatal rat cardiomyocytes were transfected using Lipofectamine Plus (Invitrogen) with a luciferase reporter plasmid for NF-κB and with β-galactosidase, as described previously (47). After 48 hours of transfection, cells were then stimulated for an additional 24 hours, lysed and treated with Dual-Light assay system (Applied Biosystems, Foster City, Calif.), and analyzed using a luminometer (PerkinElmer Waltham, Calif.).
molecule,measurement,setting,value
B1,"apoptosis (TUNEL staining, flow cytometry and caspase-3 evaluation together)",[1],can prevent apoptosis in cardiac myocytes
same,apoptosis by TUNEL staining,[1],can prevent apoptosis in cardiac myocytes; also recorded: can reduce apoptosis in cardiac myocytes
same,apoptosis by caspase-3 activation,[1],can prevent apoptosis in cardiac myocytes
same,apoptosis by flow cytometry after propidium iodide staining,[1],can prevent apoptosis in cardiac myocytes
same,hypertrophy (leucine uptake) induced by angiotensin-II or phenylephrine,[2]; co-treatment with IL-33,can block cardiac hypertrophy; also recorded: potently blocked cardiomyocyte hypertrophy; also recorded: abrogates angiotensin-II- and phenylephrine-induced hypertrophy in cardiomyocytes in vitro; also recorded: blocks hypertrophy induced by angiotensin II; also recorded: dose dependent ability to decrease hypertrophy induced by angiotensin II and phenylephrine; also recorded: can antagonize hypertrophic effects of angiotensin II and phenylephrine; also recorded: blocked angiotensin-II or phenylephrine-induced leucine uptake in a dose-dependent manner
same,"hypertrophy (leucine uptake), IL-33 alone",[2]; no other stimulus,"modest, dose-dependent pro-hypertrophic trend that was not statistically significant; also recorded: modest hypertrophic effect; also recorded: non-significant trend toward stimulating hypertrophy"
same,inflammatory changes in lung,[3]; ST2−/− mice,None of these changes were observed; also recorded: These changes were not observed
same,epithelial lining of the airways,[3]; WT mice,remained unchanged
same,infiltration of inflammatory cells in lung,[3]; WT mice,Mild infiltration of inflammatory cells within vessel walls and adjacent to the vessels; also recorded: mild focal infiltrations of inflammatory cells
same,IκBα phosphorylation by agent alone,IκBα,induced IκBα phosphorylation in both cell types
same,ROS generation in the presence of angiotensin-II or phenylephrine,cardiomyocytes,significantly decreased the generation of ROS; also recorded: inhibited by IL-33 in cardiomyocytes
same,increase of NF-κB promoter activity,NF-κB,8+/−12%
